We go through 1 molecule from patent publication US20220073596A1 (CITRYLL B V, published 2022).

Where no end group is shown, it is not given here. [ ]: non-standard residue; d: D form. Cit = NC(=O)NCCC[C@H](N)C(=O)O

Assay [1] deals with T1, Arginine containing control peptide of Histone H2A N-terminus (SEQ ID NO: 3), SGRGKQGGKARA (free N-terminal NH2 group).
T1 construct: Control peptide with arginine in place of citrulline
T1 peptide: SGRGKQGGKARA
The assay can be described thus: peptide ELISA. For orientation: In an ELISA, binding on a coated surface is turned into a signal by an enzyme label.

Assay [2] has as its target T2, N-terminal citrullinated peptide of Histone H2A (SEQ ID NO: 1), SGCitGKQGGKARA (also: biotin, place not given here).
T2 peptide: SG[Cit]GKQGGKARA
Kind of assay: peptide ELISA, biotin peptide on neutravidin. Here is the method: Optical density was measured by 450 nm and is a measure for the affinity of the antibodies used.

B1: Mouse monoclonal antibody Rmmab22.101 (antibody, V domains shown)
VH: RIQLVQSGPELKKPGEAVKISCKASGYTFTNYGMHWMKQTPGKDFRWMGWINTYSGEATYVDDFKGRFAFSLGTSASTAYLQINNLKNDDTATYFCLRGYTYQSFDEGGDYWGQGTALTVSS
VL: not shown
notes: Mouse monoclonal from hybridoma DSMZ ACC 3031; also called MQ22.101
Consider B1, for which the binding result in assay [1] is “no binding”; in assay [2], “binds”.
